From patent US20170226216A1

Molecular target: recombinant human BCMA protein conjugated to IgG1 Fc-PE (human) (UniProt Q02223)
Assay: flow cytometry, CAR T cells stained with BCMA-IgG1 Fc-PE

Sequence of UniProt Q02223 (Q02223 1-54 limits assumed): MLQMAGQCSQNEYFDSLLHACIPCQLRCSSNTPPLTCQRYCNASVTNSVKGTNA

T cells stained with BCMA-IgG1 Fc-PE (CAR surface expression), Donor 1: 86.2
B1: humanized anti-BCMA-10.2 CAR (protein)
chain: DIVLTQSPASLAVSLGERATINCRASESVSVIGAHLIHWYQQKPGQPPKLLIYLASNLETGVPARFSGSGSGTDFTLTISSLQAEDAAIYYCLQSRIFPRTFGQGTKLEIKGSTSGSGKPGSGEGSTKGQVQLVQSGSELKKPGASVKVSCKASGYTFTDYSINWVRQAPGQGLEWMGWINTETREPAYAYDFRGRFVFSLDTSVSTAYLQISSLKAEDTAVYYCARDYSYAMDYWGQGTLVTVSSAAADTGLYICKVELMYPPPYYLGIGNGTQIYVIDPEPCPDSDFLLWILAAVSSGLFFYSFLLTAVSKRGRKKLLYIFKQPFMRPVQTTQEEDGCSCRFPEEEEGGCELRVKFSRSADAPAYQQGQNQLYNELNLGRREEYDVLDKRRGRDPEMGGKPRRKNPQEGLYNELQKDKMAEAYSEIGMKGERRRGKGHDGLYQGLSTATKDTYDALHMQALPPR
